B1: WSB1 (parent)
chain: FSHDGLHVASLADDKMVRFWRIDE
B2: SNX8 (parent)
chain: LHQETQLIHVYLPLTSHILRAFVN

Variants of: B1
Experiment: protein stability index of a GFP-peptide fusion (GPS, HEK-293T) (PSI 1-6); higher = more stable
Conditions: c terminus: a fixed tail appended
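Note: lentivirally expressed fusions sorted by FACS into six bins by GFP to DsRed ratio, PSI derived from sequencing read proportions per bin multiplied by bin number.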

Q: For MSHDGLHVASLADDKMVRFWRIDE [F1M], which protein stability index is on record?
A: 3.81

Q: With GSHDGLHVASLADDKMVRFWRIDE [F1G] as the variant, how does the protein stability index read?
A: 3.43

Q: For PSHDGLHVASLADDKMVRFWRIDE [F1P], which protein stability index is on record?
A: 3.52

Q: With DSHDGLHVASLADDKMVRFWRIDE [F1D] as the variant, how does the protein stability index read?
A: 4.46

Q: For QSHDGLHVASLADDKMVRFWRIDE [F1Q], which protein stability index is on record?
A: 3.9

Q: Which protein stability index does the source give for CSHDGLHVASLADDKMVRFWRIDE [F1C] here?
A: 2.99

Q: For WSHDGLHVASLADDKMVRFWRIDE [F1W], which protein stability index is on record?
A: 2.3

Q: Which protein stability index does the source give for HSHDGLHVASLADDKMVRFWRIDE [F1H] here?
A: 3.01

Q: With TSHDGLHVASLADDKMVRFWRIDE [F1T] as the variant, how does the protein stability index read?
A: 3.73

Q: Which protein stability index does the source give for SSHDGLHVASLADDKMVRFWRIDE [F1S] here?
A: 3.33

Q: For LSHDGLHVASLADDKMVRFWRIDE [F1L], which protein stability index is on record?
A: 3.14

Q: For ESHDGLHVASLADDKMVRFWRIDE [F1E], which protein stability index is on record?
A: 4.03

Q: With NSHDGLHVASLADDKMVRFWRIDE [F1N] as the variant, how does the protein stability index read?
A: 3.25

Q: Which protein stability index does the source give for ASHDGLHVASLADDKMVRFWRIDE [F1A] here?
A: 2.85

Q: For KSHDGLHVASLADDKMVRFWRIDE [F1K], which protein stability index is on record?
A: 3.4

Q: For YSHDGLHVASLADDKMVRFWRIDE [F1Y], which protein stability index is on record?
A: 2.49

Q: Which protein stability index does the source give for ISHDGLHVASLADDKMVRFWRIDE [F1I] here?
A: 2.89

Q: Which protein stability index does the source give for FFHDGLHVASLADDKMVRFWRIDE [S2F] here?
A: 1.97

Q: With FIHDGLHVASLADDKMVRFWRIDE [S2I] as the variant, how does the protein stability index read?
A: 2.46

Q: With FPHDGLHVASLADDKMVRFWRIDE [S2P] as the variant, how does the protein stability index read?
A: 1.69

Q: With FLHDGLHVASLADDKMVRFWRIDE [S2L] as the variant, how does the protein stability index read?
A: 1.58

Q: With FRHDGLHVASLADDKMVRFWRIDE [S2R] as the variant, how does the protein stability index read?
A: 2.61

Q: Which protein stability index does the source give for FNHDGLHVASLADDKMVRFWRIDE [S2N] here?
A: 2.78

Q: For FYHDGLHVASLADDKMVRFWRIDE [S2Y], which protein stability index is on record?
A: 1.83

Q: Which protein stability index does the source give for FEHDGLHVASLADDKMVRFWRIDE [S2E] here?
A: 2.34

Q: Which protein stability index does the source give for FDHDGLHVASLADDKMVRFWRIDE [S2D] here?
A: 3.79

Q: For FMHDGLHVASLADDKMVRFWRIDE [S2M], which protein stability index is on record?
A: 3.12

Q: Which protein stability index does the source give for FGHDGLHVASLADDKMVRFWRIDE [S2G] here?
A: 1.15

Q: With FVHDGLHVASLADDKMVRFWRIDE [S2V] as the variant, how does the protein stability index read?
A: 2.64

Q: For FSCDGLHVASLADDKMVRFWRIDE [H3C], which protein stability index is on record?
A: 3.26

Q: With FSADGLHVASLADDKMVRFWRIDE [H3A] as the variant, how does the protein stability index read?
A: 2.89

Variants of: B2
Experiment: as above
Conditions: c terminus: a fixed tail appended

Q: For LHQETQLIHVYLPLTCHILRAFVN [S16C], which protein stability index is on record?
A: 2.36

Q: Which protein stability index does the source give for LHQETQLIHVYLPLTVHILRAFVN [S16V] here?
A: 1.81

Q: Which protein stability index does the source give for LHQETQLIHVYLPLTWHILRAFVN [S16W] here?
A: 2.31

Q: Which protein stability index does the source give for LHQETQLIHVYLPLTAHILRAFVN [S16A] here?
A: 1.94

Q: With LHQETQLIHVYLPLTMHILRAFVN [S16M] as the variant, how does the protein stability index read?
A: 2

Q: With LHQETQLIHVYLPLTNHILRAFVN [S16N] as the variant, how does the protein stability index read?
A: 2.52

Q: For LHQETQLIHVYLPLTYHILRAFVN [S16Y], which protein stability index is on record?
A: 2.08

Q: Which protein stability index does the source give for LHQETQLIHVYLPLTQHILRAFVN [S16Q] here?
A: 2.5

Q: With LHQETQLIHVYLPLTIHILRAFVN [S16I] as the variant, how does the protein stability index read?
A: 1.47

Q: With LHQETQLIHVYLPLTHHILRAFVN [S16H] as the variant, how does the protein stability index read?
A: 1.82

Q: For LHQETQLIHVYLPLTKHILRAFVN [S16K], which protein stability index is on record?
A: 2.77

Q: Which protein stability index does the source give for LHQETQLIHVYLPLTLHILRAFVN [S16L] here?
A: 2.08

Q: With LHQETQLIHVYLPLTEHILRAFVN [S16E] as the variant, how does the protein stability index read?
A: 2.16

Q: For LHQETQLIHVYLPLTRHILRAFVN [S16R], which protein stability index is on record?
A: 2.83

Q: For LHQETQLIHVYLPLFSHILRAFVN [T15F], which protein stability index is on record?
A: 1.58

Q: With LHQETQLIHVYLPLYSHILRAFVN [T15Y] as the variant, how does the protein stability index read?
A: 1.79

Q: Which protein stability index does the source give for LHQETQLIHVYLPLCSHILRAFVN [T15C] here?
A: 2.46

Q: For LHQETQLIHVYLPLNSHILRAFVN [T15N], which protein stability index is on record?
A: 3.74

Q: For LHQETQLIHVYLPLMSHILRAFVN [T15M], which protein stability index is on record?
A: 1.58

Q: Which protein stability index does the source give for LHQETQLIHVYLPLISHILRAFVN [T15I] here?
A: 2.85

Q: Which protein stability index does the source give for LHQETQLIHVYLPLQSHILRAFVN [T15Q] here?
A: 1.75

Q: For LHQETQLIHVYLPLWSHILRAFVN [T15W], which protein stability index is on record?
A: 2.9

Q: With LHQETQLIHVYLPLGSHILRAFVN [T15G] as the variant, how does the protein stability index read?
A: 1.2

Q: With LHQETQLIHVYLPLPSHILRAFVN [T15P] as the variant, how does the protein stability index read?
A: 2.3

Q: With LHQETQLIHVYLPLLSHILRAFVN [T15L] as the variant, how does the protein stability index read?
A: 1.86

Q: With LHQETQLIHVYLPLRSHILRAFVN [T15R] as the variant, how does the protein stability index read?
A: 2.25

Q: Which protein stability index does the source give for LHQETQLIHVYLPLVSHILRAFVN [T15V] here?
A: 4.03

Q: Which protein stability index does the source give for LHQETQLIHVYLPLKSHILRAFVN [T15K] here?
A: 3.35

Q: With LHQETQLIHVYLPLASHILRAFVN [T15A] as the variant, how does the protein stability index read?
A: 2.23

Q: For LHQETQLIHVYLPLHSHILRAFVN [T15H], which protein stability index is on record?
A: 3.58

Q: Which protein stability index does the source give for LHQETQLIHVYLPLDSHILRAFVN [T15D] here?
A: 3.4

Q: For LHQETQLIHVYLPLTSHLLRAFVN [I18L], which protein stability index is on record?
A: 3.11

Q: For LHQETQLIHVYLPLTSHHLRAFVN [I18H], which protein stability index is on record?
A: 2.63

Q: Which protein stability index does the source give for LHQETQLIHVYLPLTSHALRAFVN [I18A] here?
A: 1.85

Q: Which protein stability index does the source give for LHQETQLIHVYLPLTSHTLRAFVN [I18T] here?
A: 2.89

Q: With LHQETQLIHVYLPLTSHDLRAFVN [I18D] as the variant, how does the protein stability index read?
A: 2.65

Q: With LHQETQLIHVYLPLTSHNLRAFVN [I18N] as the variant, how does the protein stability index read?
A: 1.79

Q: Which protein stability index does the source give for LHQETQLIHVYLPLTSHRLRAFVN [I18R] here?
A: 2.44

Q: Which protein stability index does the source give for LHQETQLIHVYLPLTSHQLRAFVN [I18Q] here?
A: 2.27

Q: For LHQETQLIHVYLPLTSHKLRAFVN [I18K], which protein stability index is on record?
A: 1.97

Q: Which protein stability index does the source give for LHQETQLIHVYLPLTSHPLRAFVN [I18P] here?
A: 3.99

Q: For LHQETQLIHVYLPLTSHFLRAFVN [I18F], which protein stability index is on record?
A: 1.93

Q: With LHQETQLIHVYLPLTSHYLRAFVN [I18Y] as the variant, how does the protein stability index read?
A: 2.39

Q: With LHQETQLIHVYLPLTSHVLRAFVN [I18V] as the variant, how does the protein stability index read?
A: 3.55

Q: For LHQETQLIHVYLPLTSHGLRAFVN [I18G], which protein stability index is on record?
A: 1.71

Q: Which protein stability index does the source give for LHQETQLIHVYLPLTSHMLRAFVN [I18M] here?
A: 1.88

Q: With LHQETQLIHVYLPLTSHWLRAFVN [I18W] as the variant, how does the protein stability index read?
A: 2.33

Q: With LHQETQLIHVYLPLTSHSLRAFVN [I18S] as the variant, how does the protein stability index read?
A: 3.95

Q: Which protein stability index does the source give for LHQETQLIHVYLPLTSHCLRAFVN [I18C] here?
A: 3.75

Q: With LHQETQLIHVYLPLTSWILRAFVN [H17W] as the variant, how does the protein stability index read?
A: 3.19

Q: Which protein stability index does the source give for LHQETQLIHVYLPLTSSILRAFVN [H17S] here?
A: 3.54

Q: For LHQETQLIHVYLPLTSEILRAFVN [H17E], which protein stability index is on record?
A: 2.75

Q: Which protein stability index does the source give for LHQETQLIHVYLPLTSPILRAFVN [H17P] here?
A: 2.34

Q: With LHQETQLIHVYLPLTSRILRAFVN [H17R] as the variant, how does the protein stability index read?
A: 2.42

Q: With LHQETQLIHVYLPLTSVILRAFVN [H17V] as the variant, how does the protein stability index read?
A: 1.92

Q: For LHQETQLIHVYLPLTSMILRAFVN [H17M], which protein stability index is on record?
A: 2.52

Q: Which protein stability index does the source give for LHQETQLIHVYLPLTSGILRAFVN [H17G] here?
A: 1.77

Q: With LHQETQLIHVYLPLTSNILRAFVN [H17N] as the variant, how does the protein stability index read?
A: 2.47

Q: With LHQETQLIHVYLPLTSTILRAFVN [H17T] as the variant, how does the protein stability index read?
A: 1.85

Q: Which protein stability index does the source give for LHQETQLIHVYLPLTSLILRAFVN [H17L] here?
A: 1.69

Q: Which protein stability index does the source give for LHQETQLIHVYLPLTSIILRAFVN [H17I] here?
A: 2.46

Q: With LHQETQLIHVYLPLTSDILRAFVN [H17D] as the variant, how does the protein stability index read?
A: 2.58

Q: For LHQETQLIHVYLPLTSQILRAFVN [H17Q], which protein stability index is on record?
A: 2.97
